# Data: article PMC7115751, “Identification and functional characterization of a β-glucosidase from Bacillus tequelensis BD69 expressed in bacterial and yeast heterologous systems” (PeerJ, 2020)
# Substrate: O=[N+]([O-])c1ccc(O[C@@H]2O[C@H](CO)[C@@H](O)[C@H](O)[C@H]2O)cc1
# Assay: purified protein
# Format: biochemical, Bacillus tequilensis
# Conditions: pH 5.0 acetate buffer, 50 °C, pNPG 2–20 mM, no metal or NAD cofactor mentioned
Protein,Km,kcat/Km
"Bteqβgluc (pPIC-Bteqβgluc) (Bacillus tequilensis) (protein, full-length ORF (1,329 bp; 443 residues) in pPIC9K, secreted from Pichia pastoris GS115, purified by anion exchange; no His tag mentioned) MTKGLKIVTIGGGSSYTPVLVEGFIKRYDELPVRELWLVDIPEGEEKLNIVGTLAKRMVEKAGVPIDIHLTPDRRKALKDADFVTTQFRVGLLQARAKDERIPLKYGVIGQETNGPGGLFKGLRTIPVILEIAKDIEELCPNAWLVNFTNPAGMVTEALLRYSNLKKVVGLCNVPIGIKMGVAKALDVDVDRVEVQFAGLNHMVFGLDVFLDGVSVKEQVIEAMGDPKNAMTMKNTSGAEWEPDFLKALNVIPCGYHRYYFKTKEMLEHELEASQTEGTRAEVVQKVEKELFELYKDPNLAIKPPQLEKRGGAYYSDAACNLISSIYNDKHDIQPVNTINNGAIASIPDDSAVEVNCVMTKTGPKPIAVGDLPVSVRGLVQQIKSFERVAAEAAVTGDYQTALLAMTTNPLVPSDAVAKQILDDMLEAHKAYLPQFFNKIEA",7.43 mM,1020 M⁻¹ s⁻¹
"Bteqβgluc (pET-Bteqβgluc) (Bacillus tequilensis) (protein, full-length ORF (1,329 bp; 443 residues) in pET-30a(+), His-tagged, E. coli BL21(DE3) pLysS) MTKGLKIVTIGGGSSYTPVLVEGFIKRYDELPVRELWLVDIPEGEEKLNIVGTLAKRMVEKAGVPIDIHLTPDRRKALKDADFVTTQFRVGLLQARAKDERIPLKYGVIGQETNGPGGLFKGLRTIPVILEIAKDIEELCPNAWLVNFTNPAGMVTEALLRYSNLKKVVGLCNVPIGIKMGVAKALDVDVDRVEVQFAGLNHMVFGLDVFLDGVSVKEQVIEAMGDPKNAMTMKNTSGAEWEPDFLKALNVIPCGYHRYYFKTKEMLEHELEASQTEGTRAEVVQKVEKELFELYKDPNLAIKPPQLEKRGGAYYSDAACNLISSIYNDKHDIQPVNTINNGAIASIPDDSAVEVNCVMTKTGPKPIAVGDLPVSVRGLVQQIKSFERVAAEAAVTGDYQTALLAMTTNPLVPSDAVAKQILDDMLEAHKAYLPQFFNKIEA",8.43 mM,887 M⁻¹ s⁻¹
